Target: biotinylated SARS-CoV-2 fusion peptide (Severe acute respiratory syndrome …, biotin on the N-terminus)
Test: BLI
Details: both partners purified

B1: COV44–62 Fab VH R50W (Fab, V domains shown)
VH: QMQLMQSGAEVKKPGASVTVSCKASGDTFSDYRIHWVRQAPGQGLEWMGWMNPKSGDTNFAQKFQGRVTMTRDMSINTAYMTLSGLTFDDTALYYCASLLIVGGFDPLDDFEVWGQGTMVTISS
VL: QSALTQPPSASGSPGQSVTISCSGTSSDVGGYNFVSWYQHHPGKAPKILIYEVTKRPSGVPDRFSGSKSGNTASLTVSGLQAEDEADYYCSSYGGTNNLLFGGGTKLTVL
B1: no binding (tested: 300 nM).
